# Results as given in patent US20240150474A1 (Regeneron, published 2024).
# Changes are numbered by the printed parent chain.
# T1: human ACVR1 extracellular domain expressed with a C-terminal mouse IgG2a Fc tag (human)
# T1 construct: also called hACVR1-mFc; REGN3112
# T1 chain: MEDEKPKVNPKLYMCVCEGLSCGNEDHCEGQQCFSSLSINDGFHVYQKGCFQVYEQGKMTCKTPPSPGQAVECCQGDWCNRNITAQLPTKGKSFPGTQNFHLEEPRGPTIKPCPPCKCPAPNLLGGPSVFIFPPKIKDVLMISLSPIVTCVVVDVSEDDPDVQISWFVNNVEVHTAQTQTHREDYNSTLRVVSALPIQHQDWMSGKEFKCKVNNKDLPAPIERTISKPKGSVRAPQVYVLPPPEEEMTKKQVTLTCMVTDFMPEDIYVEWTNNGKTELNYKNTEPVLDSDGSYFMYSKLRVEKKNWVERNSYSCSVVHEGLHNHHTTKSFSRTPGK
# T2: dimeric mouse ACVRL1 (mouse, UniProt Q61288 23-119, limits assumed)
# T2 construct: Construct and dimerising part not described; also called Mouse Receptor ACVRL1
# T2 sequence (looked up): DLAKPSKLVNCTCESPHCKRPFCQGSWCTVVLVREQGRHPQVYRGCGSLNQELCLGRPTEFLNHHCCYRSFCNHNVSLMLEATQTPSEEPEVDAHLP
# T3: dimeric human BMPR1B (human, UniProt O00238 14-126, limits assumed)
# T3 construct: Construct and dimerising part not described; also called Human Receptor BMPR1B
# T3 sequence (looked up): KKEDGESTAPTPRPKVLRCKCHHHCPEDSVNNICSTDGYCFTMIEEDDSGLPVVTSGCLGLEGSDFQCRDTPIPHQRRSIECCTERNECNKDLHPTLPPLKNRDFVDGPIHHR
# T4: dimeric mouse BMPR1B (mouse, UniProt P36898 14-126, limits assumed)
# T4 construct: Construct and dimerising part not described; also called Mouse Receptor BMPR1B
# T4 sequence (looked up): T3 sequence (looked up) with V16I, L51M, N102D, R113K
# B1: REGN 5166 (antibody, human IgG4 S228P, kappa, V domains shown)
# VH: QVQLVESGGGVVQPGRSLRLSCAASGFTFSAYWMHWVRQAPGKGLEWVAVISYDGSNKYYADSVKGRFTISRDHSKNTLYLQMNSLRAEDTAVYYCAKGDAYDSWRILLGGDYYGMDVWGQGTTVTVSS
# VL: EIVLTQSPGTLSLSPGERATLSCRASQSVSSSYLAWYQQKPGQAPRPLIYGASSRATGIPDRFSGSGSGTDFTLTISRLEPEDFAVYYCQQGGDAPPYTFGGGTKVEIKR
# notes: also called REGN 5166-L1
# B2: REGN 5167 (antibody, human IgG4 S228P, kappa, V domains shown)
# VH: QLQLQESGPGLVKPSETLSLTCTVSGGSITSSSYYWAWIRQPPGKGLEWIGKIYYSGSTHYNPSLKSRVTISVDTSKNQFSLKLSSVTAADTAVYYCARVGGHGYGDSAGLAFDIWGQGTMVTVSS
# VL: EIVLTQSPGTLSLSPGERATLSCRASQSVSSAFLAWYQQKPGQAPRLLIYGASYRHTGIPDRFSGSGSGTDFTLTISRLEPEDFAVYYCQHYGVGPRTFGGGTKVEIKR
# notes: also called REGN 5167-L1
# B3: REGN 5168 (antibody, human IgG4 S228P, kappa, V domains shown)
# VH: QVQLVQSGAEVKEPGASVKVSCKASGYTFAEYYMHWVRQAPGQGLEWMGAINPSGSHTSYAQKFQGRVTMTRDTSTSTVYMELSSLRSEDTAVYYCARSISGKRGGDYYGMDVWGQGTTVTVSS
# VL: DIQMTQSPSTLSASVGDRVTITCRASQSISSWLAWYQQKPGKAPKLLIYKASSLESGVPSRFSGSGSGTEFTLTISSLQPDDFATYYCQQYSIFPFTFGGGTKVEIKR
# notes: also called REGN 5168-L1
# Molecular target: T1, human ACVR1 extracellular domain …
# Experiment: SPR Biacore T200, mAb captured by anti-human Fc, hACVR1-mFc injected, 37C
# Experimental: Equilibrium dissociation constants (KD) for ACVR1 binding to purified anti-ACVR1 monoclonal antibodies were determined using a real-time surface plasmon resonance (SPR) based Biacore T200 biosensor. All binding studies were performed in 10 mM HEPES, 150 mM NaCl, 3 mM EDTA, and 0.05% v/v surfactant Tween-20, pH 7.4 (HBS-EP) running buffer at […]. The Biacore CM5 sensor surface was first derivatized by amine coupling with a monoclonal mouse anti-human Fc antibody (REGN2567) to capture anti-ACVR1 monoclonal antibodies. Different concentrations of ACVR1 reagents, human ACVR1 extracellular domain expressed with a C-terminal myc-myc-hexahistidine tag (hACVR1-mmh; REGN3111, SEQ ID NO: 63), mouse ACVR1 extracellular domain expressed with a C-terminal myc-myc-hexahistidine tag (mACVR1-mmh; REGN3407, SEQ ID NO: 65), human ACVR1 extracellular domain expressed with a C-terminal mouse IgG2a Fc tag (hACVR1-mFc; REGN3112, SEQ ID NO: 64); and mouse ACVR1 extracellular domain expressed with a C-terminal mouse IgG2a Fc tag (mACVR1-mFc, R&D system), at concentrations ranging from 0.41 nM to 100 nM in a series of 3-fold dilutions prepared in HBS-EP running buffer were injected at a flow rate of 50 μL/min for 1.5 minutes. The dissociation of different ACVR1 reagents bound to anti-ACVR1 monoclonal antibodies was monitored for 20 minutes in HBS-EP running buffer. At the end of each cycle, the anti-ACVR1 monoclonal antibodies capture surface was regenerated using a 12 sec injection of 20 mM H3PO4. The association rate (ka) and dissociation rate (kd) were determined by fitting the real-time binding sensorgrams to a 1:1 binding model with mass transport limitation using Scrubber 2.0c curve-fitting software. Binding dissociation equilibrium constant (KD) and dissociative half-life (t½) were calculated from the kinetic rates as: […]
# Binding kinetics parameters for different ACVR1 reagents to anti-ACVR1 monoclonal antibodies of the invention at 37° C. are shown in Table 5 through Table 8.
100 nM Ag Bound (RU),Kd,koff,kon,t½,Binder
142 RU,47.8 pM,5.65e-05 s⁻¹,1.18e+06 M⁻¹ s⁻¹,3.4 h,B1
141 RU,48.1 pM,5.36e-05 s⁻¹,1.11e+06 M⁻¹ s⁻¹,3.58 h,B2
145 RU,191 pM,0.000357 s⁻¹,1.87e+06 M⁻¹ s⁻¹,0.533 h,B3

# Molecular target: T2, dimeric mouse ACVRL1
# Experiment: SPR Biacore T200, mAb captured by anti-human Fab, dimeric receptor injected, 25C
# Experimental: (§1) ACVR1 mAbs were tested for cross-reactivity to a panel of bone morphogenic protein type 1 receptors including human and mouse ACVR1, BMPR1A, and BMPR1B, as well as ACVRL1 on a Biacore T200 as follows. In order to measure the specificity of ACVR1 mAbs, ACVR1 mAbs were captured with anti-human Fab immobilized on a CM5 chip. 100 nM or 10 nM of dimeric human or mouse ACVR1, ACVRL1, BMPR1A or BMPR1B were injected at 30 μL/min for 2 min (duplicate injections) and the experiment was performed at 25° C. Binding of different receptors to the captured mAb was determined using Scrubber 2.0c software.
row,binding result,Binder
1,no binding (tested: 100 nM),B1
2,no binding (tested: 100 nM),B2
3,no binding (tested: 100 nM),B3

# Molecular target: T5, dimeric human BMPR1A (human, UniProt P36894 24-152, limits assumed)
# T5 construct: Construct and dimerising part not described; also called Human Receptor BMPR1A
# Experiment: as above
# Experimental: as §1
# T5 sequence (P36894 24-152 limits assumed): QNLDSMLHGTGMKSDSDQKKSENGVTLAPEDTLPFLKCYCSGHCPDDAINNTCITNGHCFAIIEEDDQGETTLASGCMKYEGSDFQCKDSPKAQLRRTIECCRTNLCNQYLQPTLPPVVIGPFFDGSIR
row,binding result,Binder
1,no binding (tested: 100 nM),B1
2,no binding (tested: 100 nM),B2
3,no binding (tested: 100 nM),B3

# Molecular target: T3, dimeric human BMPR1B
# Experiment: as above
# Experimental: as §1
row,binding result,Binder
1,no binding (tested: 100 nM),B1
2,no binding (tested: 100 nM),B2
3,no binding (tested: 100 nM),B3

# Molecular target: T6, dimeric human ACVRL1 (human, UniProt P37023 22-118, limits assumed)
# T6 construct: Construct and dimerising part not described; also called Human Receptor ACVRL1
# Experiment: as above
# Experimental: as §1
# T6 sequence (P37023 22-118 limits assumed): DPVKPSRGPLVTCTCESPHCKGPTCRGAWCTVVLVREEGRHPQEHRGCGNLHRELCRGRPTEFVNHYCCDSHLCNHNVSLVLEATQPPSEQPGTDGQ
row,binding result,Binder
1,no binding (tested: 100 nM),B1
2,no binding (tested: 100 nM),B2
3,no binding (tested: 100 nM),B3

# Molecular target: T4, dimeric mouse BMPR1B
# Experiment: as above
# Experimental: as §1
row,binding result,Binder
1,no binding (tested: 100 nM),B1
2,no binding (tested: 100 nM),B2
3,no binding (tested: 100 nM),B3

# Molecular target: T7, dimeric mouse BMPR1A (mouse, UniProt P36895 24-152, limits assumed)
# T7 construct: Construct and dimerising part not described; also called Mouse Receptor BMPR1A
# Experiment: as above
# Experimental: as §1
# T7 sequence (P36895 24-152 limits assumed): as the sequence (P36894 24-152 limits assumed) above, with S16L, S21P, A74T counted along it
row,binding result,Binder
1,no binding (tested: 100 nM),B1
2,no binding (tested: 100 nM),B2
3,no binding (tested: 100 nM),B3
